Data published in the nanobody polyreactivity screen of Harvey et al. (2022).

Assay: yeast display, Sf9 membrane polyspecificity reagent, FACS + sequencing; frameworks hold sequencing errors
Summary of the method: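 In a synthetic yeast display library (Saccharomyces cerevisiae BJ5465), nanobody expression was induced with galactose for 36–48 hours. FACS gates were set low and high (top ~1%) using anti-HA fluorescence for expression and streptavidin fluorescence for binding of the Sf9 membrane reagent. Each polyreactivity label is drawn from the gate of origin.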

Sequence	polyreactivity (PSR sort gate)
QVQLVESCGGLVQAGGSLRLSCAASGSTFTPNAMGWNRQAPGKERELVAAIRGLNGRTYYADSVKGRFTISRDNAKNTVYLQMNSLKPEDTAVYYCAAGGYSYYFAWHDYWGQGTQVTVSS	low polyreactivity
QVQLVESGGGLVQAGGSLRLSCAASGSTFAYNAKGWYRQAPGKERELTNYADSVKGRFTISRDNAKNTVYLQMNSLKPEDNAVYYCIAQIDFGVPDKRAWGYDYWGQGTQVTVSS	low polyreactivity
QVQLVESGGGLVQAGGSLRLSCAASGSTILSNAMGWYRQAPGKERELVADITSGGSTYYADSVKGRFTISLDNAKNTVYLQMNSLKQEDTAVYYCAVRYYLRRYDYWGQGTQVTVSS	low polyreactivity
QVQLVESGGGLVQAGGSLRLSCDASGRILTSNAMGWYRQPPGKERELVAAISWSGGSTYYADSVKGRFTISRDNAKNTVYLQMNSLKPEDTAVYYCAAPFTTTFDYWGQGTQVTVSS	low polyreactivity
QVQLVESGGGLVQAGGSLRLSCAASGSIFYLYAMGWYRQAPGKETEVVAAITSIGGSTYADSVKGRFTISRDNAKNTVYLQLNSLKPDDTAVYYCNTDVYPLTVQVQYYYWGQGTQVTVSS	low polyreactivity
QVQLVESGGGLVQAGGSLRLSCADSGRTFTNNAMGWYIQAPGKERELVAAITSGGRTNYADSVKGRFTISRDNAKNTVYLQMNSLKPEDTAVYYCAARIPSDGYYYWGQGTQVTVSS	high polyreactivity
QVQLVESGGGLVQAGGSLRLSCAASGNTFYGYTMGWYRQAPGKERELVAAISSRGGSTYYADSVKGRFTISRDNAKNTVYLQMISLKPEDTAVYYCAAVRPVKKFPYCYWGQGTQVTVSS	high polyreactivity
QVQLVESGGGLVQAGGSRRLTCAASGSIFFYNAMGWYRQATGKERELVAAISSATSTYYADSVKGRFTISRDNAMISVYVHMNSLTEEDTAVYYCAADFSDGYFWYDYWGQGTQVTVSS	high polyreactivity
QVQLVESGGGLVQAGGSLRLSCADSGSTFPWYAMGWYRQAHGKERELVADISFSGGSTYYSDSVKGRFTISRDNAKNTVYLQMNSLKPEDTAVYYCASETSFLRHAYQSDSFDYWGQGTQVTVSS	high polyreactivity
QVQHVESAGGLVQAGGSLRLSCAASGITFKVYAMGWYRQAPGKERELVATISRSDAGTSYADSVKGRFTISRDNAKNTVYLQMNSLKPEDTAVYYCAATYVSKKTHTKYDYWGQGTQVTVSS	high polyreactivity
QVQLVESRGGLVQAGGSLRLSCPDSGITLSEYAMGWYRQAPGKERELVATISWRGGTTYYADSVKGLFTISRDNAKNTVSLQMIILNPEDTAVYYCAASWWSFGCYTWKAYDYWGQGTQVTVSS	high polyreactivity
QVQLVESGGGLVQAGGSLRLSCAASGIIFENYAMGWYRQAPGKERELVAAISAGGAITYYADSVKGRFTISRDNAKNTVYLQMNSLKPEDTAVYYCNAKSYRHLLYIPYKYNYWGQGTQVTVSS	high polyreactivity
QVQLQESGGGLVQAGGSLLSCAASGTISSYREMGWYRQAPGKELELVAGIGVGTITYYADSVKGRFTISRDNAKNTVYLQMNSLKPEDTAVYYCAAHIDGNDSHAYWGQGTQVTVSS	low polyreactivity
QVQLVESGGGLVQAGGSLRLICAASGRTFRGDAMGWYRPAPGKERELVAAITKSGGSTYYADSVKGRFTISRDNAKNTVYLQMNSLKPEDTAVYYCAKLRSSRDYDYWGQVTQVTVSS	high polyreactivity
QVQLVESGGGLVHAGGSLRLSCAASGFTFGGYAKGWYIQAPGKERELVAAISQSGGRTYYADSVKGRFTISRDHAKNTFYLQMNSLKPEDTAVYYCAKPSTTYYQRGDYWGQGTQVTVSS	high polyreactivity
QVQLVESGGGLVQAGGSLRLSCAASGFTIPVYVMGWYRQAPGKERELVAAITRTGGRTYYADSVKGRFTISRDNAKNTVYLQMNSLKPEDTAVYYCAAFTHRYGISEFDYWGQGTQVTVSS	high polyreactivity

Sequence	polyreactivity (PSR sort gate)
QVQLVESGGGLVQAGGSLRLSCAASGFIFSHYAMGWYRQSPGKEREFVATSSKRGGSTTYADSVKGRFTISRDNAKNTVYLQMNSLKPEDTAVYYCAADRYRSFERYDYWGQGTQVTVSS	high polyreactivity
QVQLVESGGGLVQAGGSLRLSCAASGSTFRYYVMGWYRQAPGKERELVARITSAASTNYADSVKGRFTISRDNAKNTVYLQMNSLNPEDTAVYYCAARKYGSRYRLKYDYWGQGTQVTVSS	high polyreactivity
QVQLVESGGGLVQAGGSLRLSCAASGRTLPAYAMGWYRQAPGKERELVAAISWGGGSTYYADSVKGRFTISRDNAKKTVYLQMNSLKPEDTAVYYCAVAGYWFAVAEYDYWGQGTQVTVSS	low polyreactivity
QVQLVESWGGLVQAGGSLRLSCAASGSTMRYYAMGWYRQAPGKERELVAAISSRGGRTYYSDSVKGRFTISRDNAKNTVYLQMNSLKPEDTAVYYCAARARERYYWGQGNQVTVSS	high polyreactivity
QVQLVESGGGLVQAGGRLRLSCPASGRIFSLYAMGWYRQAPGKERELVAVISSTGVSSHYADSVKGRFTISRDNAKYTVYLLMNSLNPEDTAVYYCNARWSFPRWGYEYGYWGQGTQVTVSS	high polyreactivity
QVQLVESGGGLVQAGGSLRLSCAASGSTFDNTMGWYRQEPGKEKEFVATISWRGGSTYYADSVKGRFTISRDNAKNTVYLQMNSLKPEDTAVYYCAAEVDYRVYWNEVDYWGQGTQVNVSS	low polyreactivity
QVQLVESGGGLVQAGGSLRLSCAASGFIFWWYTMGWYRQAPGKETELVAAITGSGGSTYYADSVKGRFTISRDNAKNTVYLQMNSLKPEDTAVYYCNAVSAYKWQYDYWGQGTQVTVSS	high polyreactivity
QVQLVESGGGLVQAGGSLRLTCAASGFIFYAYTMRCYRQAPGKERELVAAISRSGGRTYYADSVKGRFTISRDNAKNTVYLQMNRLKPEDTAVYYCAAEYRGVPRVVVDYDYWGQGTQVTVSS	high polyreactivity
QVQLVESGGGLVQAGGSLRLTCAASGSIFGFNAMGWYRQAPGKERELGAAISSGSTYYADSVKGRFTISRDNAKNTVYLQINSLKPEDTAVYYCNARSNRGRFEYWGQGTQVTESS	low polyreactivity
QVQLVESGGGLVQAGGSLRLSCAASGLIFSYNAMGWYRQAPGKERELVAAISANGGRTYYADSVKGRFTISRDNAKNTVSLQMNSLKPEDTAVYYCAAQGSRKLFYTDSGYWGQGTQVSVSS	high polyreactivity
QVQLVESGGGLVQAGGSLRLSCAASGFIFSANDMGGYRQAPGKERELVADIDSSGRTNYADSVKGRFTISRDNAKNTVYLQMNSLNPEDTAVYYCATPPDDKGGGYLGYDYWGQGTEVTVSS	low polyreactivity
QVQLVESGGGLVQAGGSLRLSCAATGFTFTGNAMGWYRQAPGKQRELVAAINTGTGGSTYYADSVKGRFTISRDNAKNTVYLQMNSLKPVDTAVYYPIGVGGDYDYWGQGTQVTVSS	low polyreactivity
QVQLVESGGGLVQAGGSLRLSCAASGFTIPTYTMGWYRQAPGKEREFVARITKRGGSTYYADSVKGRFTISRDNAKNTVYLQMNGLKPEDTAVYYCNARRYGKVVRSRYNYWGQGTQVTVSS	high polyreactivity
QVQLVESAGGLVQAGGSLRISCAASGRTFFKYAMGWYSQAPGKERELVAAITGRGGSTYADSVKGRFTISRDNAKNTVYLQINSLKPEDTSVFYCAKVYQRGAQYYYYKYDYWGQGTQVTVSS	high polyreactivity
QVQHEESGGGLVQAGGSLRLSCAASGFTFRGYAMGWYRQAPGKERELVAAISRSGGGTYYADSVKGRFTISRDNAKNTVYLQMNSLKPEDTAVYYCAAVYRRTRSWKFDYWGQGTQVTVSS	high polyreactivity
QVQLVESGGGLVQAGGSLRLSCAASGSIFGRYGMGWYRQAPGKERELVAAITSGTRTNYADSVKGRFTISRDNAKTTVYLQMNSLKPEDTAVYYCNALRLRGNYEYGYWGQGTQVTVSS	low polyreactivity
